In article PMC10786891, “Massively parallel profiling of RNA-targeting CRISPR-Cas13d”:

T1: EsCas13d, nuclease-dead (Eubacterium siraeum, UniProt B0MS50, R295A;H300A;R849A;H854A)
T1 sequence: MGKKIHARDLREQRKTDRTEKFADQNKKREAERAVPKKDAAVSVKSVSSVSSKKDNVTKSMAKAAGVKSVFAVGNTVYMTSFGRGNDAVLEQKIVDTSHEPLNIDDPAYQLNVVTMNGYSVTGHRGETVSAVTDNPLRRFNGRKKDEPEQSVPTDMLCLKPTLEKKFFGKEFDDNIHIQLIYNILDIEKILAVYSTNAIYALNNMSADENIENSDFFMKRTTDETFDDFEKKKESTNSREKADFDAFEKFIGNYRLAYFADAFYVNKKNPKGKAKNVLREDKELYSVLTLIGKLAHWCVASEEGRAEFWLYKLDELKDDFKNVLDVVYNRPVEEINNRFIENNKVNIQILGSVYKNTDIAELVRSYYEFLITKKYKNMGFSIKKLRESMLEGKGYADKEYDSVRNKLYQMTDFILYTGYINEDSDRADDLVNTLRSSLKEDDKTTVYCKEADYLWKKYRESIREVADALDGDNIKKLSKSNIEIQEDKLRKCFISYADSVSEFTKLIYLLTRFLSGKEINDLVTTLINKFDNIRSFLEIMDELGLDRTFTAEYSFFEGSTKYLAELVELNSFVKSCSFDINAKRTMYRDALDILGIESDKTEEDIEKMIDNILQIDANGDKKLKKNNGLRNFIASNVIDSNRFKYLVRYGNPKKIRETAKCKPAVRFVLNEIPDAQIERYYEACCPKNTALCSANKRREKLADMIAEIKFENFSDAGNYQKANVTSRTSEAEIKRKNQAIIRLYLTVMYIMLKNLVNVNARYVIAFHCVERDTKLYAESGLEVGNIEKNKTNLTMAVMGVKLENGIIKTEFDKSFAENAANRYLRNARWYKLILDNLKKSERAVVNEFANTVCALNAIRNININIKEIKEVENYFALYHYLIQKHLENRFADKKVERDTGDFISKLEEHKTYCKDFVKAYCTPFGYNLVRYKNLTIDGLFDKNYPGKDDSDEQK


These binders were tested against T1, EsCas13d, nuclease-dead (assay: crRNA (strand 1, pre-loaded); Mg2+; 40 mM Tris-HCl pH 7.5, 150 mM NaCl, 6 mM MgCl2, 1 mM DTT, 0.1% Tween-20, 0.2 mg/ml BSA; 25 C; 10 min per concentration, then washed). Settings: tags: His6-TwinStrep-SUMO cleaved; N-terminal SNAP kept (SNAP-Surface 488); label: 3' end held by stalled T7 RNA polymerase.

Row | Binder | Kd
1 | target 1 insU 3' of 21,insG 3' of 19 (mixed) RNA 1: CACCCGUGCAAAAAUGCAGGGGUCUAAAACUGAGCGGAUAACCUCUCUAUGG RNA 2: GGGAAUGGAUCCACAUCUACGAAUUCGUACCUAUGAGAGAGGUUAUCCGCUCACCGAGAUCGGAAGAGCACACGU | 73 ± 9 nM
2 | target 1 G15U,A16U (mixed) RNA 1: CACCCGUGCAAAAAUGCAGGGGUCUAAAACUGAGCGGAUAACCUCUCUAUGG RNA 2: GGGAAUGGAUCCACAUCUACGAAUUCGUACCAUAGUUAGGUUAUCCGCUCACCGAGAUCGGAAGAGCACACGU | 15.6 ± 0.7 nM
3 | target 1 insU 3' of 18,insG 3' of 3 (mixed) RNA 1: CACCCGUGCAAAAAUGCAGGGGUCUAAAACUGAGCGGAUAACCUCUCUAUGG RNA 2: GGGAAUGGAUCCACAUCUACGAAUUCGUACCAUAUGAGAGGUUAUCCGCUGCACCGAGAUCGGAAGAGCACACGU | 17.7 ± 0.6 nM
4 | target 1 A9G,G12U (mixed) RNA 1: CACCCGUGCAAAAAUGCAGGGGUCUAAAACUGAGCGGAUAACCUCUCUAUGG RNA 2: GGGAAUGGAUCCACAUCUACGAAUUCGUACCAUAGAGAGUUUGUCCGCUCACCGAGAUCGGAAGAGCACACGU | 12.5 ± 0.6 nM
5 | target 1 insG 3' of 20,insG 3' of 20 (mixed) RNA 1: CACCCGUGCAAAAAUGCAGGGGUCUAAAACUGAGCGGAUAACCUCUCUAUGG RNA 2: GGGAAUGGAUCCACAUCUACGAAUUCGUACCAGGUAGAGAGGUUAUCCGCUCACCGAGAUCGGAAGAGCACACGU | 60 ± 20 nM
6 | target 1 G13C (mixed) RNA 1: CACCCGUGCAAAAAUGCAGGGGUCUAAAACUGAGCGGAUAACCUCUCUAUGG RNA 2: GGGAAUGGAUCCACAUCUACGAAUUCGUACCAUAGAGACGUUAUCCGCUCACCGAGAUCGGAAGAGCACACGU | 62 ± 16 nM
7 | target 1 insU 3' of 17,insA 3' of 4 (mixed) RNA 1: CACCCGUGCAAAAAUGCAGGGGUCUAAAACUGAGCGGAUAACCUCUCUAUGG RNA 2: GGGAAUGGAUCCACAUCUACGAAUUCGUACCAUAGUAGAGGUUAUCCGCAUCACCGAGAUCGGAAGAGCACACGU | 15.3 ± 1.4 nM
8 | target 1 insG 3' of 19,insA 3' of 13 (mixed) RNA 1: CACCCGUGCAAAAAUGCAGGGGUCUAAAACUGAGCGGAUAACCUCUCUAUGG RNA 2: GGGAAUGGAUCCACAUCUACGAAUUCGUACCAUGAGAGAGAGUUAUCCGCUCACCGAGAUCGGAAGAGCACACGU | 47 ± 10 nM
9 | target 1 C7A,C22U (mixed) RNA 1: CACCCGUGCAAAAAUGCAGGGGUCUAAAACUGAGCGGAUAACCUCUCUAUGG RNA 2: GGGAAUGGAUCCACAUCUACGAAUUCGUAUCAUAGAGAGGUUAUACGCUCACCGAGAUCGGAAGAGCACACGU | 13.8 ± 1.1 nM
10 | target 1 complement block 1-5 (mixed) RNA 1: CACCCGUGCAAAAAUGCAGGGGUCUAAAACUGAGCGGAUAACCUCUCUAUGG RNA 2: GGGAAUGGAUCCACAUCUACGAAUUCGUACCAUAGAGAGGUUAUCCCGAGUCCGAGAUCGGAAGAGCACACGU | 14.3 ± 0.6 nM
11 | target 1 insC 3' of 9,insG 3' of 4 (mixed) RNA 1: CACCCGUGCAAAAAUGCAGGGGUCUAAAACUGAGCGGAUAACCUCUCUAUGG RNA 2: GGGAAUGGAUCCACAUCUACGAAUUCGUACCAUAGAGAGGUUACUCCGCGUCACCGAGAUCGGAAGAGCACACGU | 7.02 ± 0.26 nM
12 | target 1 G12A,U19C (mixed) RNA 1: CACCCGUGCAAAAAUGCAGGGGUCUAAAACUGAGCGGAUAACCUCUCUAUGG RNA 2: GGGAAUGGAUCCACAUCUACGAAUUCGUACCACAGAGAGAUUAUCCGCUCACCGAGAUCGGAAGAGCACACGU | 22 ± 3 nM
13 | target 1 insU 3' of 15 (mixed) RNA 1: CACCCGUGCAAAAAUGCAGGGGUCUAAAACUGAGCGGAUAACCUCUCUAUGG RNA 2: GGGAAUGGAUCCACAUCUACGAAUUCGUACCAUAGAGUAGGUUAUCCGCUCACCGAGAUCGGAAGAGCACACGU | 8.7 ± 0.6 nM
14 | target 1 U10A,G17A (mixed) RNA 1: CACCCGUGCAAAAAUGCAGGGGUCUAAAACUGAGCGGAUAACCUCUCUAUGG RNA 2: GGGAAUGGAUCCACAUCUACGAAUUCGUACCAUAAAGAGGUAAUCCGCUCACCGAGAUCGGAAGAGCACACGU | 55 ± 5 nM
15 | target 1 C2G,U8C (mixed) RNA 1: CACCCGUGCAAAAAUGCAGGGGUCUAAAACUGAGCGGAUAACCUCUCUAUGG RNA 2: GGGAAUGGAUCCACAUCUACGAAUUCGUACCAUAGAGAGGUUACCCGCUGACCGAGAUCGGAAGAGCACACGU | 7.9 ± 0.4 nM
16 | target 1 A9G,C22G (mixed) RNA 1: CACCCGUGCAAAAAUGCAGGGGUCUAAAACUGAGCGGAUAACCUCUCUAUGG RNA 2: GGGAAUGGAUCCACAUCUACGAAUUCGUAGCAUAGAGAGGUUGUCCGCUCACCGAGAUCGGAAGAGCACACGU | 58 ± 18 nM
17 | target 1 insU 3' of 21,insG 3' of 2 (mixed) RNA 1: CACCCGUGCAAAAAUGCAGGGGUCUAAAACUGAGCGGAUAACCUCUCUAUGG RNA 2: GGGAAUGGAUCCACAUCUACGAAUUCGUACCUAUAGAGAGGUUAUCCGCUCGACCGAGAUCGGAAGAGCACACGU | 26 ± 5 nM
18 | target 1 insC 3' of 9,insC 3' of 8 (mixed) RNA 1: CACCCGUGCAAAAAUGCAGGGGUCUAAAACUGAGCGGAUAACCUCUCUAUGG RNA 2: GGGAAUGGAUCCACAUCUACGAAUUCGUACCAUAGAGAGGUUACUCCCGCUCACCGAGAUCGGAAGAGCACACGU | 19.9 ± 1.4 nM
19 | target 1 C6G,G13U (mixed) RNA 1: CACCCGUGCAAAAAUGCAGGGGUCUAAAACUGAGCGGAUAACCUCUCUAUGG RNA 2: GGGAAUGGAUCCACAUCUACGAAUUCGUACCAUAGAGAUGUUAUCGGCUCACCGAGAUCGGAAGAGCACACGU | 37 ± 5 nM
20 | target 3 complement block 3-7 (mixed) RNA 1: CACCCGUGCAAAAUUGCAGGGGUCUAAAACGACCUGAAUAUUUCAGAUCAAA RNA 2: GGGAAUGGAUCCACAUCUACGAAUUCGUUUUUGAUCUGAAAUAUAGUCCUCUGCAGAUCGGAAGAGCACACGU | 74 ± 11 nM
21 | target 3 C6U,U7C (mixed) RNA 1: CACCCGUGCAAAAUUGCAGGGGUCUAAAACGACCUGAAUAUUUCAGAUCAAA RNA 2: GGGAAUGGAUCCACAUCUACGAAUUCGUUUUUGAUCUGAAAUAUCUAGGUCUGCAGAUCGGAAGAGCACACGU | 65.5 ± 15.5 nM
22 | target 3 G3C,U21G (mixed) RNA 1: CACCCGUGCAAAAUUGCAGGGGUCUAAAACGACCUGAAUAUUUCAGAUCAAA RNA 2: GGGAAUGGAUCCACAUCUACGAAUUCGUUUGUGAUCUGAAAUAUUCAGCUCUGCAGAUCGGAAGAGCACACGU | 70.5 ± 24 nM
23 | target 3 C6U,U22G (mixed) RNA 1: CACCCGUGCAAAAUUGCAGGGGUCUAAAACGACCUGAAUAUUUCAGAUCAAA RNA 2: GGGAAUGGAUCCACAUCUACGAAUUCGUUGUUGAUCUGAAAUAUUUAGGUCUGCAGAUCGGAAGAGCACACGU | 51.5 ± 6 nM
24 | target 3 C1G,U2G (mixed) RNA 1: CACCCGUGCAAAAUUGCAGGGGUCUAAAACGACCUGAAUAUUUCAGAUCAAA RNA 2: GGGAAUGGAUCCACAUCUACGAAUUCGUUUUUGAUCUGAAAUAUUCAGGGGUGCAGAUCGGAAGAGCACACGU | 12.8 ± 1.6 nM
25 | target 3 del14,del17 (mixed) RNA 1: CACCCGUGCAAAAUUGCAGGGGUCUAAAACGACCUGAAUAUUUCAGAUCAAA RNA 2: GGGAAUGGAUCCACAUCUACGAAUUCGUUUUUGACUAAAUAUUCAGGUCUGCAGAUCGGAAGAGCACACGU | 41 ± 7 nM
26 | target 3 insU 3' of 16,insA 3' of 4 (mixed) RNA 1: CACCCGUGCAAAAUUGCAGGGGUCUAAAACGACCUGAAUAUUUCAGAUCAAA RNA 2: GGGAAUGGAUCCACAUCUACGAAUUCGUUUUUGAUCUUGAAAUAUUCAGAGUCUGCAGAUCGGAAGAGCACACGU | 90 ± 44.5 nM
27 | target 3 insA 3' of 6,insU 3' of 6 (mixed) RNA 1: CACCCGUGCAAAAUUGCAGGGGUCUAAAACGACCUGAAUAUUUCAGAUCAAA RNA 2: GGGAAUGGAUCCACAUCUACGAAUUCGUUUUUGAUCUGAAAUAUUCAUAGGUCUGCAGAUCGGAAGAGCACACGU | 5.3 ± 0.39 nM
28 | target 3 insA 3' of 8,insA 3' of 7 (mixed) RNA 1: CACCCGUGCAAAAUUGCAGGGGUCUAAAACGACCUGAAUAUUUCAGAUCAAA RNA 2: GGGAAUGGAUCCACAUCUACGAAUUCGUUUUUGAUCUGAAAUAUAUACAGGUCUGCAGAUCGGAAGAGCACACGU | 44.5 ± 5.5 nM
